This is an account of results in a protein production outcome set (Wang et al. 2014).

This data set is described as follows: label from the status in PepcDB records.
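Note: failed if final PepcDB status was selected cloned or expressed and not failed if soluble or beyond.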

Consider “MKLLIISDGHGDLEKLKKIKPVADGVDALIFGGDFAAFKKIETGAPFLNELLKIHKNIFAVLGNCDEPEFEKKLKDASVSITGEVKNFEGLIFAGSGGGSKFTGTTPYERTDEELVKDLTDAFEKANITAAGNLVLVCHNPPHGAKVDKVAPMVHVGSKGITAFIEKHKPLLVVSGHIHESFAVDKIGETVLVNPGALMEGRYALAEITKNEKGFKVSVELKTLD”, for which the protein production result is on record as “failed”.

For the sequence “MKLPRFGVEEWLNVHENSAIYDIAGVSISSLTLEELFALSGTNPEDFYKKLQGTKLNYGWIEGSPAFKKSVSQLYTGVKPEQILQTNGATGANLLVLYSLIEPGDHVISLYPTYQQLYDIPKSLGAEVDLWQIEEENGWLPDLEKLRQLIRPTTKMICINNANNPTGAVMDRTYLEELVEIASEVGAYILSDEVYRSFSELDVPSIIEVYDKGIAVNSLSKTYSLPGIRIGWVAANHQVTDILRDYRDYTMICAGVFDDLVAQLALAHYQEILERNRHILEENLAILDQWIEEEPLVSYIRPAVVSTSFVKIAVDMPMEDFCLQLLQEHGVLLVPGNRFERDGYVRLGFACEQETLIKGLEKLSQFLRRFDKEN”, the protein production result is listed as “not failed”.

For “MKLPRLWPTALSLLCSLALAQAPASPGTTAQGPAPAAVAGLAALPGGTRLVCAGTSLWTLSTSAAPQRLPLPEDCQGLRVSPSGKVVLVSGRASVTVWRLDAEQQSDGQLWRRVALPEPARRVAFLNDSTLLLAGARGLEQLDLNTQARTLLRPGAVTGLATAPDGRRAVMGDGSRVQLVNVADGAVLSGVRCEVACPLQDVQFSRDQRGAVVQAGPVLYALREGHPATAVLRGAEGAMGFPLPDGGVWVLTAGRLERRDAQTGRREGVLRPEGVSGPAAWTPEGGLLYVAGRELVELDKTGQEVGRTALP”, the protein production result is “failed”.

With “MKLRSWEFYDRIARAYDSMYETPKWKLYHRLIGSFLEEYLKNPCRVLDLGGGTGKWSLFLQERGFEVVLVDPSKEMLEVAREKGVKNVVEAKAEDLPFPSGAFEAVLALGDVLSYVENKDKAFSEIRRVLVPDGLLIATVDNFYTFLQQMIEKDAWDQITRFLKTQTTSVGTTLFSFNSYAFKPEDLDSLEGFETVDIRGIGVMEYPDERISEREETIFRLEQELSRDRNIIWKADHIFFVLKKKRGA”, the protein production result is listed as “not failed”.

Take “MKLSQQSQAIIESAIQKAINKYTCGCEQTIVTDIHIQPNQNSGELFIYDDEDEELSSVTIDEWTAYEGDDFCEDAERIFRTVLCRMKENGSFDKLTILKPYSFVLVDEDKETISELLLVDDDTLLVNDELLKGLDKELDDFLKDLLEKLEHHHHHH”: the protein production result was “not failed”.

“MKLVICIVQDDDAGELIDVLTDKGLRVTKLATTGGFLKAGNTTLMIGVEEKAVDGVIETIEDVCKTRQQVVTSPSPVAGSTGVYVPYPIDVEVGGATIFVVDVDKFIKI”: the protein production entry is “failed”.

“MKMEELFKKHKIVAVLRANSVEEAKEKALAVFEGGVHLIEITFTVPDADTVIKELSFLKEKGAIIGAGTVTSVEQCRKAVESGAEFIVSPHLDEEISQFCKEKGVFYMPGVMTPTELVKAMKLGHTILKLFPGEVVGPQFVKAMKGPFPNVKFVPTGGVNLDNVCEWFKAGVLAVGVGSALVKGTPDEVREKAKAFVEKIRGCTE”: the protein production result is on record as “not failed”.

Take “MKMGMVFVFVLLTVFMAVMSSTRVSAQSNCKNELKKSLKPCFSYLTSSYPSLPDDSDCCPSLLDISKTSVDCFCQYLNSGGSILDINANFIQARRLPEICGVDPYLASVCNEGKNFLTSIYEETPIL”: the protein production result was “failed”.

Turning to “MKMKHAFGPIILACVLFFIIILIPSKSLVSLISDKKVEDAATSLQKEKLQSVFLQQKMLENSQYLPMYGSSEFLRMDAYHPSNYFKVNPAGFTPFLIGTGGTQSLAHILNMTSTMDELEGKKVVFVLSPQWFTKTGVSQGDFTNNFSKQQAYHFIFNDKINPEMKKQIAKRLLDYKVVQEDDILKNSLEGIVYNDSKHNIKAGLVKPLAYMHRNILDHRDLFNSLFKIEPMKEKTNIGLRSISWEDARKHAEQEGKAESTTNTFGIENPYYHKNNLKKKLKGLKNFRANETYDESPEYDDLQIILELFKEKNVKPLFISVPVNGPWYDYTGFPKERREVYYKKVREQVEKAGYPVIDFSGHEYDKYFLKDTIHLGWKGWIYFDEAVQKFYSEKLEHHHHHH”, the protein production result is on record as “not failed”.

For the sequence “MKMKLLILAVLPFLTPINMNSQEEKASWVQYVNPLIGTEVWQSGVAVAGHEDPSGYTFPGVTEPFGMTEWTAHTLESKHAGTLHHRVPYWYKHNYISGFMGTHYPSGAVMFDYGAVELMPVVGQLKCRPEERSSSFTHITEKSKPHFYEVMLDDYQVKAQLSATKTSAILQFTYPQSDSAYVVVDAMPSMFTAGAPGYIHIDPVRKEISGKSIQSARGYRETGYFVVRFDKDFDSFGTFNLNNDYPEVIEEKYLFTQKEGKWVNGLKGIYTQDSKGVGHLRSEKIDPVIDFDWDWYKPADDFSFNDYQVTWSGKLKAPSTGEYTLGIQADDGARLYINGELLIDDWKSHSFSYQPTQKKISLEAGKMYDIKLEYYQHEWSSRIKLSWIRPDKKSSTSLLTGNRHLESSTKIGGYIRFKTGKNEVIKAIVGTSFISVEQARINLEREIGAKSMETISAQTEALWNKELSVIDLPGATEQDKIVFYTALYHSFLLPRSLSEDGKYRSPFDGKVHKGISFTDYSIWDTFRATHPLFVLLKPDFAGDLITGLLHAYDEGGWLPKWPNPGYTNCMMGTHSDAIIADAYVKGVRNFDVEKAKKAVLKNAYEKGNHIAWGRLGIMDYERLGYVPVDKYGESVARTMEFAYDDYCLSRFFAEKGEPDLSDKLGKRSKNFRNVLDKETKMVRARKADGSWSNPEDYDISVWSGFNPKGVYNYKKNYTLFVPHDVPELIRFLGGTDSLAVFMDELFDKDIYYVGDEFVMHAPYMYNLCKRPWMTQKRIYDIVNKYYLPTPSGLPGNDDCGQLSSWYIFSAMGFYPMCPASIEYQLGVPCLPGFVLHLPQNRTFTIKTKNFGKGNCYVRAVYLNGKPHRSSVITHSDIINGGEILFELTDKPAYNWFQ”, the protein production entry is “failed”.

With “MKMKYDPGETWRSIYRENKRCDGFNNYYDDESASYQFSENPYVWKDGKERCRTIGMQNDWTALDIGAGAGSMTVPLAKICKRVTAVEPSKTMARILSSNLKKAGLDNVQIINSRWEDAPEEIERHDIIIAAYSLMIDDIEKAVLRMNSLARKKVYLYWFAGVPYWERHCLDLWSTIYGYEYTPSPKVDLIFAVLYKHGIYPDVVNLDSERPPYERVMTTEQAMDELKDSLHLKGNDEWDELLMRYIEDNYEKKEDGCWSRGGSSRMRISWSPQP”, the protein production entry was “failed”.

Consider “MKMVLFSFLLGCCSLLVSAQQPVDYVNPFIGTSNYGTTNPGAICPQGMMSVTPFNVMGSKSNKFDKDSQWWSTPYSADNNFFTGYAHVNLSGVGCPEMGSLLLMPTSGELNVDYHAYGSEYKNEVAHPGYYSNILTKYDIKTEATASMRTGLTRFTFPKGQGNILLNLGEGLTNETGATVRMVSDTEIEGSKLLGTFCYNPQAVFPIYFVMKLSKAPKQAGYWKKQREMKGVEAEWDAYSGKYKLYTKYDREMSGDDIGVWFKYDTEEDEVIEVKMGVSFVSIENARLNMNTEQPDFNFDKVRAAAGKMWNDDLSRVMVEGGTNDDKTIFYTAIYHLLIHPNIIQDVNGEYPMMESLKVGHTTGNRYTVFSLWDTYRNVSTLMTLLYPEKQLDIIRTMIDMYKESGWLPKWELYGRETLTMEGDPSIPYIVDAYMRGLRDYDIETAYEGMCKGATTPGEFNLLRPDNNDYMSKGYVPLREQYDNSVSHALEYYIADWNLSLLADALGKKEDAKLFRERAMGYKHYYCKEFGTLRPILPDGTFYSPFDPKQGENFEPSPGFHEGNAWNYTFYVPHDIKGLAKLMGGQKKFVDKLQMVFDKGYYDMANEPDIAYPYLFSYFKGEAWRTQKLVCELLGKYYHNAPNGLPGNDDTGTMSTWAIFSMMGFYPACPGDLDYVVTSPTFNKVTIRLDEKFYPKGELVIESARKTPEDIYIKEVTAGGKKLKGYTISQDELVNAGTLRFTLENKH”, for which the protein production result is on record as “failed”.

For “MKNDRKARLILSIFRYGKNHMEKETFYHKVNYGIYKILNAVFVIGFFGTELQASQSISNNIILFHPYGIVVSGEATLGDEVVIRQQVTIGNKGTGEGADDCPIIGDRVDIGAGAKIIGGITIGENSKIGANAVVTKSFPANSILVGVPARNIASKAMNGLEHHHHHH”, the protein production entry is on record as “not failed”.

Consider “MKNFSRTGKILFSYGAIQMFWGLVMLNVNVFEHTSETIKYVILITGIVFCIISNFFKEHKSHTIT”, for which the protein production entry is “failed”.

For “MKNFWKKYHKWVGLFFSFFILMFCFSGIVLNHRTLFSKAEVSRNWMPESYHYKNWNNGIIKGTLRLPDGKILAYGNAGVWKTDSCFATFADFNRGLAEGIDNRKISNIVRVANNDIWCAGLYSIYLLNHDSWKEYPIAGNDERISDITQRGDTLVILTRSYLYTSVSPYDEFRKTELKTPENYSPKTSLFRTIWLLHSGELFGTPGKLAVDFLGVVLIVLSATGIIYTLLPPFIRRRHRKRLPVKTQAKALKTSLNWHNKLGTWLIGLTLLLSVTGMCLRPPLMIPFVLVNTRPVPGSTLDSDNPWHDKLRSIRWDASRNVWLLSSSMGFYRINDLQLPPVKLKQTPPVSPMGVNVFHPQSPDEWLIGSFSGLFVWNPSTGTVLDYYTGQPPAAVHGRPLGGSLVNGFTDDLVTREVIFEYDNGARNKENNLVLPAMPDLIKQQPMSLWNFCLELHVGRCYSPFLGVFSDLFVFISGLLLTLILISGYIVYKRHHKRSKKIRMH”, the protein production result is recorded as “failed”.

As for “MKNIAFFDFDGTITSTDSYTPFIFQTIPASRMKKGKFLLAPYILGYRLKLIRGTVLRSKIFKLGFAGLDADEIQQKGLSFSQSYLPQIIRPQALERIQWHLAQGDHVVVVSASMDVYLKPWCTQYGLDLLCSEVDTINGKITGIYKNGDCSREVKKQRILDNYDLSLYAAIYAYGDTIEDQAMLSLATHGFYRWQPINPR”, the protein production result is “failed”.

As to “MKNIIACIDGSPTTFATCEASAWVASKINAPLILLHALDKTMRPVVSEFSGQIGLGSQEELLNELAELDEARSKVALKHGKKLLEEATEWVIKKGLTNVEQLQRHGSLLESLIDLENQLRVLVIGKLGEDQSSNKTIGSQLESIIRSIKSHTLVVT”, the protein production result is listed as “failed”.

Take “MKNIINILDDLTINKIAAGEVVERPSSVVKELIENSIDAGANKISIDIIDGGKSLIKITDNGIGIPSSEVEKSFLRHATSKIKKIDDLYDLYSLGFRGEALASISAVSKLEMTTKTKDEIIGTKIYVEGGKIISKEPIGFTNGTTIIIKDIFFNTPARQKFLKSTHAETINISDLINKLAIGNPNIQFKYTNNNKQMLNTPGDGKLVNTIRSIYGKEITENIIDVEFKCNHFKMNGYIGNNNIYRSNKNLQHIYINKRFVKSKIIIDAITESYKSIIPIGKHAVCFLNIEVDPSCIDVNIHPNKLEIKFEKEQEVYIELRDFLKVKLIHSNLIGKYATYSDKKTQPRIAINSREKSTDYKLRNNDLLESTPKNSNITKGKDEVIEVVTLSSEKPINEFQSVSEVLNASVEDDVKNINYLSEDSANDNIQEEFQVDGIKNEGNYYLGDSIKDSEEEYLCSSKRKFSLYGYSVIGVVFNTYIILSKDDSMYLLDQHAAHERILYERYMEKFYRQDINMQILLDPVVIEVSNVDMLQIENNLELFMKFGFELEIFGNNHIMVRCVPTIFGVPETEKFILQIIDNIEEITSNYDLKGERFASMACRSAIKANDKIYDIEIKSLLEQLEKCENPFTCPHGRPIMVEISKTEIEKMFKRIM”: the protein production result was “failed”.

For the sequence “MKNIKIMRLVTGEDIIGNISESQGLITIKKAFVIIPMQATPGKPVQLVLSPWQPYTDDKEIVIDDSKVITITSPKDDIIKSYESHTSEIITPSGLITET”, the protein production result was “not failed”.

Turning to “MKNLYILIFACLAISAQGQQLLNSDFENWTNHPGSGGYSSYDEADNWASGNAAVNIAPGLTPPTTKTTDAQHGNAAVKLTTQSIFGQIAAGNLFTGKFQLNLSNPVKSVQMGIPYVSRPSAFNVYYKYAPVNGDSCAIYVLLTKYNTSTKKTDTIGRGHFSSTANVSVYTLLHIPVTYTSTAAPDSIAMVFTSSADGGNFRGQVGSSLTVDNFSLEFEELSIATSLAAVSAVLYPNPAQSRVALSNAPSESGTVYFYNVAGKLVSSQKWTGTVSPEFALDNMPAGFYTCKFITSDTAVFSGKLLITE”, the protein production result is given as “failed”.
